Data reported in article PMC10200313 (ACS chemical biology, 2022).

Biological target: T1, 6E peptide (14-mer peptide derived from UBC6e, with N-terminal triglycine motif) (Homo sapiens, UniProt Q9Y385)
T1 chain: QADQEAKELARQIS
Experiment: SPR

- binding result: binds
B1: Nb6E labeled with biotin (Nb6E-biotin) (VHH)
VHH: QVQLQESGGGLVQPGGSLRLSCAASGFVFENSAMAWYRQAPGKERELIAVIGTTFIKLAESVKGRFTISRDNAKSTVYLQMNNLKPEDTAVYYCSKSGAYWGQGTQVTVSS
